Laboratory results reported in the supplement of paper PMC6757056.
± gives the standard deviation of the averaged measurements.

B1: library; a variant is named by its letters at N, in order (parent)
chain: GCUGUCACCGGUGUAUUACCCUAGUGGUCGACCGGUCUGAUGAGUCUNNNNNNAGACGAAACAGC

Key:
hypoxanthine [1] = variants of: B1; experiment: normalized RNA/DNA level with ligand (relative to sTRSVctl = 100) (log10 (% of sTRSVctl)); ligand: hypoxanthine (xanthine aptamer); higher = less ribozyme self-cleavage, higher mRNA level; details: ligand concentration (+) RNA-Seq: 5 mM, HEK293T, reporter: mCherry (pCS4076), ligand present: yes
Outline: (§1)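 RNA level was computed as RNA reads over DNA reads divided by a spiked-in non-cleaving sequence or by the top sequences, then scaled and log-transformed. Scaling was ×100 with log10, the top group was 25 sequences, and the threshold was ≥100 DNA reads. The reads came from HEK293T cells transfected at 4 µg per 6-well well with ribozyme switch library plasmids (mCherry, or eGFP in some ligand experiments). Total RNA was extracted with EDTA 72 h after transfection, with any ligand added 1 h before it.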

hypoxanthine [2] = variants of: B1; experiment: normalized RNA/DNA level without ligand (relative to sTRSVctl = 100) (log10 (% of sTRSVctl)); ligand: hypoxanthine (xanthine aptamer); higher = less ribozyme self-cleavage, higher mRNA level; details: HEK293T, reporter: mCherry (pCS4076), ligand present: no
Outline: as §1

Row | Variant | normalized RNA/DNA level with ligand (log10) (hypoxanthine [1]) | normalized RNA/DNA level without ligand (log10) (hypoxanthine [2])
1 | CUCAGC | 2 ± 0.068 | 1.96 ± 0.01
2 | UUCAGC | 1.94 ± 0.026 | 1.93 ± 0.02
3 | CUCAGG | 1.95 ± 0.041 | 1.88 ± 0.026
4 | UUCAGG | 1.92 ± 0.025 | 1.79 ± 0.053
5 | CUCAGU | 1.97 ± 0.061 | 1.89 ± 0.079
6 | UUCAGU | 1.947 ± 0.013 | 1.83 ± 0.036
7 | GUCAUA | 1.957 ± 0.013 | 1.806 ± 0.013
8 | UUCAUA | 1.88 ± 0.019 | 1.8411 ± 0.0016
9 | AUCAUG | 1.89 ± 0.021 | 1.63 ± 0.062
10 | CUCAUG | 1.96 ± 0.042 | 1.91 ± 0.024
11 | UUCAUG | 1.95 ± 0.029 | 1.78 ± 0.056
12 | CUCAUU | 1.99 ± 0.067 | 2.01 ± 0.08
13 | GUCAUU | 1.97 ± 0.056 | 1.916 ± 0.015
14 | UUCAUU | 1.95 ± 0.025 | 1.91 ± 0.071
15 | CUCCAA | 1.91 ± 0.047 | 1.869 ± 0.01
16 | UUCCAA | 1.92 ± 0.097 | 1.8417 ± 0.0007
17 | AUCCAC | 1.95 ± 0.056 | 1.8068 ± 0.00014
18 | CUCCAC | 1.92 ± 0.02 | 1.92 ± 0.036
19 | CUCCAG | 1.89 ± 0.068 | 1.73 ± 0.057
20 | UUCCAG | 1.9 ± 0.051 | 1.68 ± 0.064
21 | GUCCAU | 1.95 ± 0.028 | 1.852 ± 0.0035
22 | UUCCAU | 1.97 ± 0.074 | 1.882 ± 0.0027
23 | AUCCCA | 1.92 ± 0.03 | 1.88 ± 0.02

Row | Variant | normalized RNA/DNA level with ligand (log10) (hypoxanthine [1]) | normalized RNA/DNA level without ligand (log10) (hypoxanthine [2])
24 | CUCCCA | 1.991 ± 0.0032 | 1.87 ± 0.046
25 | GUCCCA | 1.94 ± 0.02 | 1.9 ± 0.041
26 | UUCCCA | 1.92 ± 0.032 | 1.91 ± 0.037
27 | AUCCCC | 1.93 ± 0.025 | 1.87 ± 0.036
28 | GUCCCC | 1.907 ± 0.017 | 1.825 ± 0.01
29 | UUCCCC | 1.93 ± 0.043 | 1.8846 ± 0.0013
30 | AUCCCU | 1.97 ± 0.042 | 1.9 ± 0.022
31 | CUCCCU | 1.94 ± 0.039 | 1.97 ± 0.043
32 | GUCCCU | 1.934 ± 0.016 | 1.92 ± 0.05
33 | UUCCCU | 2 ± 0.052 | 1.935 ± 0.0058
34 | CUCCGA | 1.96 ± 0.13 | 1.884 ± 0.0062
35 | GUCCGA | 1.9508 ± 0.00054 | 1.732 ± 0.013
36 | UUCCGA | 1.97 ± 0.029 | 1.94 ± 0.03
37 | CUCCGC | 1.967 ± 0.019 | 1.95 ± 0.026
38 | GUCCGC | 1.9 ± 0.055 | 1.85 ± 0.024
39 | UUCCGC | 2.011 ± 0.003 | 1.89 ± 0.035
40 | AUCCGG | 1.954 ± 0.0038 | 1.7 ± 0.051
41 | CUCCGG | 1.93 ± 0.029 | 1.95 ± 0.065
42 | UUCCGG | 1.98 ± 0.024 | 1.903 ± 0.011
43 | AUCCGU | 1.96 ± 0.0099 | 1.91 ± 0.018
44 | CUCCGU | 1.95 ± 0.051 | 1.88 ± 0.019
45 | GUCCGU | 1.891 ± 0.0098 | 1.86 ± 0.041
46 | UUCCGU | 2 ± 0.039 | 1.85 ± 0.025

Row | Variant | normalized RNA/DNA level with ligand (log10) (hypoxanthine [1]) | normalized RNA/DNA level without ligand (log10) (hypoxanthine [2])
47 | AUCCUA | 1.94 ± 0.062 | 1.9 ± 0.043
48 | CUCCUA | 1.96 ± 0.075 | 1.87 ± 0.055
49 | GUCCUA | 1.95 ± 0.069 | 1.934 ± 0.015
50 | UUCCUA | 1.94 ± 0.016 | 1.89 ± 0.0066
51 | GUCCUC | 1.9 ± 0.016 | 1.93 ± 0.057
52 | UUCCUC | 1.97 ± 0.038 | 2.04 ± 0.025
53 | CUCCUG | 1.94 ± 0.021 | 1.953 ± 0.0068
54 | GUCCUG | 1.88 ± 0.024 | 1.52 ± 0.022
55 | AUCCUU | 1.98 ± 0.027 | 1.91 ± 0.055
56 | CUCCUU | 1.99 ± 0.087 | 1.89 ± 0.056
57 | GUCCUU | 1.94 ± 0.11 | 1.95 ± 0.017
58 | UUCCUU | 1.92 ± 0.081 | 1.891 ± 0.0051
59 | AUCGAA | 1.863 ± 0.01 | 1.73 ± 0.04
60 | CUCGAC | 1.96 ± 0.023 | 1.808 ± 0.017
61 | UUCGAC | 1.9 ± 0.074 | 1.781 ± 0.0058
62 | CUCGAG | 1.9019 ± 0.00066 | 1.6 ± 0.031
63 | UUCGAG | 1.88 ± 0.038 | 1.544 ± 0.0067
64 | GUCGAU | 1.93 ± 0.07 | 1.76 ± 0.039
65 | AUCGCA | 1.9253 ± 0.0018 | 1.77 ± 0.028
66 | CUCGCA | 1.94 ± 0.062 | 1.847 ± 0.002
67 | CUCGCC | 1.99 ± 0.026 | 1.883 ± 0.0029
68 | GUCGCC | 1.9 ± 0.05 | 1.91 ± 0.08
69 | UUCGCC | 1.95 ± 0.046 | 1.856 ± 0.015

Row | Variant | normalized RNA/DNA level with ligand (log10) (hypoxanthine [1]) | normalized RNA/DNA level without ligand (log10) (hypoxanthine [2])
70 | AUCGCG | 1.863 ± 0.0079 | 1.409 ± 0.0031
71 | CUCGCG | 1.983 ± 0.0024 | 1.9 ± 0.084
72 | GUCGCG | 1.93 ± 0.039 | 1.55 ± 0.055
73 | UUCGCG | 1.9036 ± 0.0015 | 1.84 ± 0.044
74 | AUCGCU | 1.91 ± 0.024 | 1.84 ± 0.028
75 | CUCGCU | 1.95 ± 0.043 | 1.924 ± 0.014
76 | GUCGCU | 2.04 ± 0.038 | 1.904 ± 0.011
77 | UUCGCU | 1.983 ± 0.015 | 1.87 ± 0.049
78 | AUCGGA | 1.94 ± 0.044 | 1.74 ± 0.061
79 | CUCGGA | 1.99 ± 0.03 | 1.84 ± 0.057
80 | UUCGGA | 1.95 ± 0.034 | 1.75 ± 0.044
81 | AUCGGC | 1.97 ± 0.099 | 1.86 ± 0.029
82 | UUCGGC | 1.95 ± 0.098 | 1.89 ± 0.025
83 | AUCGGG | 1.889 ± 0.0042 | 1.52 ± 0.06
84 | UUCGGG | 1.95 ± 0.044 | 1.73 ± 0.027
85 | AUCGGU | 1.91 ± 0.02 | 1.6043 ± 0.0014
86 | GUCGGU | 1.91 ± 0.051 | 1.83 ± 0.035
87 | AUCGUA | 1.898 ± 0.017 | 1.74 ± 0.024
88 | CUCGUA | 1.91 ± 0.02 | 1.907 ± 0.015
89 | GUCGUA | 1.91 ± 0.088 | 1.79 ± 0.073
90 | AUCGUC | 2.03 ± 0.048 | 1.977 ± 0.0058
91 | GUCGUC | 2.03 ± 0.088 | 1.93 ± 0.058
92 | UUCGUC | 2.0298 ± 0.00024 | 2.03 ± 0.041

Row | Variant | normalized RNA/DNA level with ligand (log10) (hypoxanthine [1]) | normalized RNA/DNA level without ligand (log10) (hypoxanthine [2])
93 | AUCGUG | 1.82 ± 0.047 | 1.4 ± 0.076
94 | CUCGUG | 1.94 ± 0.028 | 1.81 ± 0.025
95 | GUCGUG | 1.86 ± 0.043 | 1.37 ± 0.018
96 | UUCGUG | 1.964 ± 0.019 | 1.7 ± 0.041
97 | AUCGUU | 1.98 ± 0.08 | 1.87 ± 0.043
98 | CUCGUU | 1.94 ± 0.019 | 2.03 ± 0.063
99 | GUCGUU | 1.97 ± 0.057 | 1.89 ± 0.032
100 | UUCGUU | 1.94 ± 0.11 | 1.84 ± 0.054
101 | CUCUAA | 1.93 ± 0.051 | 1.8 ± 0.054
102 | AUCUAC | 1.9 ± 0.12 | 1.855 ± 0.013
103 | CUCUAC | 1.966 ± 0.013 | 1.87 ± 0.019
104 | GUCUAC | 1.94 ± 0.043 | 1.8 ± 0.018
105 | UUCUAC | 1.87 ± 0.041 | 1.89 ± 0.085
106 | AUCUAG | 1.91 ± 0.033 | 1.61 ± 0.019
107 | CUCUAG | 1.9 ± 0.0079 | 1.78 ± 0.011
108 | UUCUAG | 1.936 ± 0.0068 | 1.67 ± 0.059
109 | AUCUAU | 1.93 ± 0.032 | 1.83 ± 0.074
110 | CUCUAU | 2.03 ± 0.035 | 1.848 ± 0.0086
111 | GUCUAU | 1.94 ± 0.059 | 1.82 ± 0.026
112 | UUCUAU | 1.95 ± 0.047 | 1.867 ± 0.016
113 | AUCUCA | 1.96 ± 0.071 | 1.89 ± 0.043
114 | CUCUCA | 1.96 ± 0.0068 | 1.91 ± 0.027
115 | GUCUCA | 1.965 ± 0.019 | 1.943 ± 0.0073
